Source: paper PMC314469, “Protein Interaction Networks by Proteome Peptide Scanning” (PLoS Biology, 2004)

T1: Boi1 SH3 (BOI1_YEAST), P38041
T1 chain: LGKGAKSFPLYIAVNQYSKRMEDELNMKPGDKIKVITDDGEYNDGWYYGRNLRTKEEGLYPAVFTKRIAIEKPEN

T2: Myo5 SH3 (MYO5_YEAST), Q04439
T2 chain: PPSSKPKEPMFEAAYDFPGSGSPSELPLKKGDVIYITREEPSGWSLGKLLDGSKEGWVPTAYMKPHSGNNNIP

T3: Boi2 SH3 (BOI2_YEAST), P39969
T3 chain: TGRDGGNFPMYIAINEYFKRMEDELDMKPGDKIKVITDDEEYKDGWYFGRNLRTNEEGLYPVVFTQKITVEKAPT

T4: Yhr016c SH3 (YSC84_YEAST), P32793
T4 chain: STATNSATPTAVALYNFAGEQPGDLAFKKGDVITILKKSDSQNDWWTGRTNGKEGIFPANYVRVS

T5: Rvs167 SH3 (RV167_YEAST), P39743
T5 chain: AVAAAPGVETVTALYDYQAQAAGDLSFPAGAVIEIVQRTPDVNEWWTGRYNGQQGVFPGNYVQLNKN

T6: Yfr024 SH3 (LSB3_YEAST), P43603
T6 chain: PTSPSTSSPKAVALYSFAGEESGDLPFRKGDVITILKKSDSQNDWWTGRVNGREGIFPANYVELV


Experiments:
Test in all cases: SPOT array
[1] = target: Sho1 SH3 (SHO1_YEAST), P40073
Chain of Sho1 SH3 (SHO1_YEAST), P40073 (P40073 295-366): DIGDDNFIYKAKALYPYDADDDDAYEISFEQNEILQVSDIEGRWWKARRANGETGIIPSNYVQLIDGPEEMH

[2] = target: T1, Boi1 SH3 (BOI1_YEAST), P38041
[3] = target: T2, Myo5 SH3 (MYO5_YEAST), Q04439
[4] = target: T3, Boi2 SH3 (BOI2_YEAST), P39969
[5] = target: T4, Yhr016c SH3 (YSC84_YEAST), P32793
[6] = target: T5, Rvs167 SH3 (RV167_YEAST), P39743
[7] = target: T6, Yfr024 SH3 (LSB3_YEAST), P43603

| Binder | normalised SPOT signal, Boehringer light units (BLU); mean over the file's lines of this peptide [1] | normalised SPOT signal, Boehringer light units (BLU); mean over the file's lines of this peptide [2] | normalised SPOT signal, Boehringer light units (BLU); mean over the file's lines of this peptide [3] | normalised SPOT signal, Boehringer light units (BLU); mean over the file's lines of this peptide [4] | normalised SPOT signal, Boehringer light units (BLU); mean over the file's lines of this peptide [5] | normalised SPOT signal, Boehringer light units (BLU); mean over the file's lines of this peptide [6] | normalised SPOT signal, Boehringer light units (BLU); mean over the file's lines of this peptide [7] |
| --- | --- | --- | --- | --- | --- | --- | --- |
| PKKSRVLPPLPFPL [YER032W 884-897] | 25000 | 940 | 3590 | 16.2 | 3660 | 18900 | 12800 |
| PKSPKAYPKLPDIQ [YDL117W 352-365] | 143 | 409 | 357 | 23.5 | 24.1 | 0 | 83.8 |
| PKTGKPLPTQPSSS [YKR001C 557-570] | 22000 | 609 | 193 | 9.7 | 24.1 | 64.7 | 89.9 |
| PLRERIIPILPANS [YMR164C 159-172] | 950 | 340 | 175 | 16 | 84.4 | 261 | 949 |
| PNPLKKAPIPPLAY [YPR059C 36-49] | 20.3 | 73.1 | 137 | 0 | 16.4 | 28.8 | 15.3 |
| PPLPRAPPVPPATF [YJL021C 6-19] | 29.4 | 152 | 35900 | 13.2 | 10.8 | 17.7 | 135 |
| PPNYKQQPNSPSSN [YLR183C 18-31] | 27.6 | 61 | 148 | 17.5 | 30.5 | 1 | 184 |
| PPPPRRGPAPPPPP [YOR181W 345-358] | 8.1 | 4340 | 15000 | 19.8 | 39.4 | 57 | 212 |
| PPQMRSNPQQPPQD [YPL204W 472-485] | 56.5 | 92.2 | 268 | 194 | 456 | 306 | 3150 |
| PPRFKNFPTLPSKI [YLL015W 59-72] | 3830 | 572 | 634 | 60.1 | 87.6 | 210 | 2550 |
| PPSIRKQPIAPDVL [YJR092W 754-767] | 25.8 | 220 | 150 | 13.5 | 29.6 | 49.5 | 450 |
| PQQNRPLPQLPNRN [YOR181W 307-320] | 31600 | 3740 | 186 | 4.1 | 50100 | 53800 | 36200 |
| PQTMRQAPKRPDAD [YNL298W 493-506] | 121 | 350 | 3260 | 743 | 6220 | 3750 | 15700 |
| PRSKKKKPAPPTLL [YMR039C 165-178] | 57.4 | 84.3 | 413 | 17.2 | 37.5 | 49.7 | 157 |
| PSAMKLVPSIPPAT [YBR154C 118-131] | 42.6 | 89.4 | 561 | 21.6 | 63.3 | 45.4 | 251 |
| PSHYRNIPYNPATF [YBR194W 90-103] | 65.2 | 188 | 175 | 8.5 | 11.3 | 27.8 | 100 |
